# Measurements published in patent US12466853B2, “Selective targeting of apoptosis proteins by structurally-stabilized and/or cysteine-reactive NOXA peptides” (priority 2017, dated 2025).
# Target: T1, HA-BFL-1ΔC C4S/C19S / tBID (Homo sapiens, UniProt Q16548, C19S/C4S)
# T1 construct: Recombinant anti-apoptotic BFL-1ΔC (aa 1-151) and its cysteine to serine mutants were cloned into PET17b; expressed in transfected cells; host or cells: 293T (lysate)
# T1 sequence (Q16548 1-151 C4S/C19S): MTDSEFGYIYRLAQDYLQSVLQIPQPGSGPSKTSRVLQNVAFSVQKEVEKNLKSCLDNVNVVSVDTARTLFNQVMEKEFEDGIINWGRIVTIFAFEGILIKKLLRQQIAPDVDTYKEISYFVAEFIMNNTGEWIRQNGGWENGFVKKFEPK
# Experiment: BFL-1/BH3 complex disruption: competition with tBID in 293T lysates
# Assay type: binding
# Conditions: anti-HA immunoprecipitation
# Method: To evaluate the capacity of biotinylated SAHBs to compete with tBID for interactions with BFL-1 and MCL-1, 293T cells were transfected with either HA-BFL-1ΔC C4S/C19S or FLAG-MCL-1 in the p3XFLAG-CMV-10 vector (Sigma) as above. After 24 hr, cells were trypsinized, washed with PBS, lysed in 1% CHAPS buffer, and the supernatant collected for protein concentration determination by BCA kit. Lysate samples (0.5 mg) were incubated with 0.25 μM recombinant tBID (R&D Systems) and 5 μM biotinylated NOXA SAHBs for 6 h at RT. The mixtures were then subjected to HA or FLAG immunoprecipitation, followed by western analysis using 1:1000 dilutions of HA (Sigma Aldrich, #12CA5), FLAG (Sigma-Aldrich, F7425), and BID (Santa Cruz sc-11423) antibodies.
substance,measurement,value
JAT8LREFGDXLNFRQ [D-NA-NOXA-15 R31E],competition with tBID for HA-BFL-1ΔC C4S/C19S interaction,effectively competes with tBID
